Reference: publication PMC10511449, “Custom tuning of Rieske oxygenase reactivity” (Nature Communications, 2023)

Tests used:
[1] = target: T1, phthalate dioxygenase (PDO) (Comamonas testosteroni, UniProt B7WQT1); experiment: LC-MS product detection; type: biochemical; conditions: VanB reductase, 2 mM substrate, 500 µM NADH, 100 µM ferrous ammonium sulfate, 30 °C
T1 construct: gene CtesDRAFT_PD2022; codon-optimized, MBP tag removed with TEV protease, pMCSG9, E. coli C41(DE3); authors use structure PDB 7V25 (earlier work) for PDO residues
T1 sequence (B7WQT1 1-439): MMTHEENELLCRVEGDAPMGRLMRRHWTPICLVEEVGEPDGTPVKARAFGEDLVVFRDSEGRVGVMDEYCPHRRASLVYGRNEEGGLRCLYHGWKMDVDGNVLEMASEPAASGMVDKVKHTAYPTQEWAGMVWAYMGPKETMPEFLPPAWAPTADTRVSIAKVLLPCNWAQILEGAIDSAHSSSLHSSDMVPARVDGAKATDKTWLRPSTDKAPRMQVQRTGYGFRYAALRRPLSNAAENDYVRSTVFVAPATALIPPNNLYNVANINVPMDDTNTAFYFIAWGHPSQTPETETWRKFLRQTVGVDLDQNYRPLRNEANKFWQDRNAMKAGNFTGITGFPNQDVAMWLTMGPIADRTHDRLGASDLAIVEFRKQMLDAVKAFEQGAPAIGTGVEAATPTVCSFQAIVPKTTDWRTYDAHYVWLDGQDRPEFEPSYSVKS

purified protein [2] = substrate: Cc1ccc(C(=O)O)cc1; experiment: purified protein; conditions: apparent; VanB reductase (4:1), 500 µM NADH, O2, 100 µM ferrous ammonium sulfate
purified protein [3] = substrate: O=C(O)c1ccc(O)cc1; experiment: purified protein; conditions: apparent; VanB reductase (4:1), 500 µM NADH, O2, 100 µM ferrous ammonium sulfate
[4] = substrate: CC(C)c1ccc(C(=O)O)cc1; experiment: LC-MS product formation, Michaelis-Menten; type: biochemical, Comamonas testosteroni; conditions: apparent; VanB reductase (4:1), 500 µM NADH, O2, 100 µM ferrous ammonium sulfate
From the text: (§1) LC-MS product formation, Michaelis-Menten on TsaM (p-toluenesulfonate methyl-monooxygenase)

[5] = substrate: CCc1ccc(C(=O)O)cc1; experiment: LC-MS product formation, Michaelis-Menten; type: biochemical, Comamonas testosteroni; conditions: apparent; VanB reductase (4:1), 500 µM NADH, O2, 100 µM ferrous ammonium sulfate
From the text: as §1

[6] = substrate: CNc1ccc(C(=O)O)cc1; experiment: LC-MS product formation, Michaelis-Menten; type: biochemical, Comamonas testosteroni; conditions: apparent; VanB reductase (4:1), 500 µM NADH, O2, 100 µM ferrous ammonium sulfate
From the text: as §1

[7] = substrate: COc1ccc(C(=O)O)cc1; experiment: LC-MS product formation, Michaelis-Menten; type: biochemical, Comamonas testosteroni; conditions: apparent; VanB reductase (4:1), 500 µM NADH, O2, 100 µM ferrous ammonium sulfate
From the text: as §1

[8] = substrate: CSc1ccc(C(=O)O)cc1; experiment: LC-MS product formation, Michaelis-Menten; type: biochemical, Comamonas testosteroni; conditions: apparent; VanB reductase (4:1), 500 µM NADH, O2, 100 µM ferrous ammonium sulfate
From the text: as §1

[9] = substrate: Cc1ccc(N)cc1; experiment: LC-MS product formation, Michaelis-Menten; type: biochemical, Comamonas testosteroni; conditions: apparent; VanB reductase (4:1), 500 µM NADH, O2, 100 µM ferrous ammonium sulfate
From the text: as §1

[10] = substrate: Cc1ccc(S(=O)(=O)O)cc1; experiment: LC-MS product formation, Michaelis-Menten; type: biochemical, Comamonas testosteroni; conditions: apparent; VanB reductase (4:1), 500 µM NADH, O2, 100 µM ferrous ammonium sulfate
From the text: as §1

[11] = substrate: Cc1ccc([N+](=O)[O-])cc1; experiment: LC-MS product formation, Michaelis-Menten; type: biochemical, Comamonas testosteroni; conditions: apparent; VanB reductase (4:1), 500 µM NADH, O2, 100 µM ferrous ammonium sulfate
From the text: as §1

[12] = substrate: Cc1cccc(C(=O)O)c1; experiment: LC-MS product formation, Michaelis-Menten; type: biochemical, Comamonas testosteroni; conditions: apparent; VanB reductase (4:1), 500 µM NADH, O2, 100 µM ferrous ammonium sulfate
From the text: as §1

[13] = substrate: O=C(O)c1ccccc1; experiment: LC-MS product formation, Michaelis-Menten; type: biochemical, Comamonas testosteroni; conditions: apparent; VanB reductase (4:1), 500 µM NADH, O2, 100 µM ferrous ammonium sulfate
From the text: as §1

[14] = substrate: O=S(=O)(O)c1ccc(O)cc1; experiment: LC-MS product formation, Michaelis-Menten; type: biochemical, Comamonas testosteroni; conditions: apparent; VanB reductase (4:1), 500 µM NADH, O2, 100 µM ferrous ammonium sulfate
From the text: as §1

[15] = substrate: O=S(=O)(O)c1ccccc1; experiment: LC-MS product formation, Michaelis-Menten; type: biochemical, Comamonas testosteroni; conditions: apparent; VanB reductase (4:1), 500 µM NADH, O2, 100 µM ferrous ammonium sulfate
From the text: as §1

Molecule: O=C(O)c1ccccc1 [compound 38, benzoate]
- LC-MS product detection [1]: PDO-VanB system catalyzes a dioxygenation reaction to transform benzoate

B1: TsaM (p-toluenesulfonate methyl-monooxygenase) (Comamonas testosteroni) (protein)
chain: MFIRNCWYVAAWDTEIPAEGLFHRTLLNEPVLLYRDTQGRVVALENRCCHRSAPLHIGRQEGDCVRCLYHGLKFNPSGACVEIPGQEQIPPKTCIKSYPVVERNRLVWIWMGDPARANPDDIVDYFWHDSPEWRMKPGYIHYQANYKLIVDNLLDFTHLAWVHPTTLGTDSAASLKPVIERDTTGTGKLTITRWYLNDDMSNLHKGVAKFEGKADRWQIYQWSPPALLRMDTGSAPTGTGAPEGRRVPEAVQFRHTSIQTPETETTSHYWFCQARNFDLDDEALTEKIYQGVVVAFEEDRTMIEAHEKILSQVPDRPMVPIAADAGLNQGRWLLDRLLKAENGGTAP
notes: codon-optimized, N-terminal His-tag with TEV site, E. coli C41(DE3), trimer ~120 kDa; assayed with VanB as non-native reductase
- Km (purified protein [2]): 13 ± 1.3 µM
- Vmax (purified protein [2]): 11 µM/min
- kcat (purified protein [2]): 0.0933 s⁻¹
- kcat/Km (purified protein [2]): 7200 M⁻¹ s⁻¹
- Km (purified protein [3]): 86 ± 2.1 µM
- Vmax (purified protein [3]): 1 µM/min
- kcat (purified protein [3]): 0.00833 s⁻¹
- kcat/Km (purified protein [3]): 98 M⁻¹ s⁻¹
- Km [4]: 150 ± 6.5 µM
- Vmax [4]: 4.1 µM/min
- kcat [4]: 0.035 ± 0.00433 s⁻¹
- kcat/Km [4]: 230 ± 24 M⁻¹ s⁻¹
- Km [5]: 65 ± 3.8 µM
- Vmax [5]: 7.3 µM/min
- kcat [5]: 0.06 ± 0.00567 s⁻¹
- kcat/Km [5]: 930 ± 95 M⁻¹ s⁻¹
- Km [6]: 240 ± 11 µM
- Vmax [6]: 3.2 µM/min
- kcat [6]: 0.0267 ± 0.00217 s⁻¹
- kcat/Km [6]: 110 ± 8.8 M⁻¹ s⁻¹
- Km [7]: 180 ± 8.9 µM
- Vmax [7]: 3.3 µM/min
- kcat [7]: 0.0267 ± 0.00417 s⁻¹
- kcat/Km [7]: 150 ± 20 M⁻¹ s⁻¹
- Km [8]: 240 ± 2.5 µM
- Vmax [8]: 2.6 µM/min
- kcat [8]: 0.0217 ± 0.00267 s⁻¹
- kcat/Km [8]: 88 ± 14 M⁻¹ s⁻¹
- Km [9]: 110 ± 7.7 µM
- Vmax [9]: 3.2 µM/min
- kcat [9]: 0.0267 ± 0.00233 s⁻¹
- kcat/Km [9]: 230 ± 21 M⁻¹ s⁻¹
- Km [10]: 3.8 ± 0.60 µM
- Vmax [10]: 6.2 µM/min
- kcat [10]: 0.05 ± 0.00367 s⁻¹
- kcat/Km [10]: 13000 ± 2200 M⁻¹ s⁻¹
- Km [11]: 230 ± 12 µM
- Vmax [11]: 2.9 µM/min
- kcat [11]: 0.0233 ± 0.00417 s⁻¹
- kcat/Km [11]: 100 ± 16 M⁻¹ s⁻¹
- Km [12]: 100 ± 4.2 µM
- Vmax [12]: 3.1 µM/min
- kcat [12]: 0.0267 ± 0.00617 s⁻¹
- kcat/Km [12]: 260 ± 50 M⁻¹ s⁻¹
- Km [13]: 80 ± 1.5 µM
- Vmax [13]: 1 µM/min
- kcat [13]: 0.00867 ± 0.00217 s⁻¹
- kcat/Km [13]: 99 ± 20 M⁻¹ s⁻¹
- Km [14]: 80 ± 2.8 µM
- Vmax [14]: 1.3 µM/min
- kcat [14]: 0.011 ± 0.00167 s⁻¹
- kcat/Km [14]: 130 ± 22 M⁻¹ s⁻¹
- Km [15]: 76 ± 3.6 µM
- Vmax [15]: 1.1 µM/min
- kcat [15]: 0.00967 ± 0.00333 s⁻¹
- kcat/Km [15]: 120 ± 47 M⁻¹ s⁻¹
